{
  "source": "paper PMC12576452",
  "target": "HBV-S/preS1^16-42 antigen, untagged, produced in P. purpureum (Hepatitis B virus) (UniProt P03138)",
  "test": "SDS-PAGE under native, non-reducing (-DTT) and reducing (+DTT) conditions with western blot; lysates of freeze-dried algal biomass; bands of monomers, dimers and oligomers detected with anti-preS1 antibodies; disulfide-linked",
  "data": [
    {"substance": "HBV-S/preS1^16-42 antigen, untagged, produced in P. purpureum (from UniProt P03138 16-42)", "values": [
      {"measurement": "stoichiometry N", "result": 2}
    ]}
  ]
}
